Laboratory results as given in patent publication US20090017017A1 (SYMPHOGEN A S, published 2009).
Substitutions are numbered along the chain they refer to.

T1: Rhesus D antigen (human, UniProt Q02161 2-417)
T1 construct: whole, on cells; Presented on RhD(+) erythrocytes; also called RhD; RhD antigen
T1 sequence (looked up): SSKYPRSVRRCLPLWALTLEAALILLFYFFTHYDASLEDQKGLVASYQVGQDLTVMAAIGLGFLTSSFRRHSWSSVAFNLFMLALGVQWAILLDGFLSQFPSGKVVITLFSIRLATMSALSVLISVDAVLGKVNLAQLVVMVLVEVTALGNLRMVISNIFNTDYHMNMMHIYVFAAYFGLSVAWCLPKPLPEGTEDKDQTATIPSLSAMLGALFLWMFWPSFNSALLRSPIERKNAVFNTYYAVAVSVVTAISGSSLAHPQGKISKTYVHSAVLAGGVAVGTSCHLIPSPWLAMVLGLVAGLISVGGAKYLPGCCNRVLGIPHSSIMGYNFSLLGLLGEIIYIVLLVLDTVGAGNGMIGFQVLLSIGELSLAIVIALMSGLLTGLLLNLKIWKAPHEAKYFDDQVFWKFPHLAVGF

B1: RhD239.126F09 (Fab, V domains shown)
VH: QVQLVESGGGVVQPGTSLRLSCAASGFTFRTYGMHWVRQAPGKGLEWVAYIWYDGSNKYYADSVKGRFTISRDNSKSTLNLQMNSLRAEDTAVYYCAREIASRGYSRYLYYFDSWGQGTLVTVSS
VL: DIQLTQSPSSLSASVGDRVTITCRASQSISSYLNWYQQKPGKAPKLLISAASSLQSGVPSRFSGSGSGTDFTLTISSLQREDYATYYCQQSYSTPPYTFGQGTKLEIKR
notes: Tested as Fab in E. coli periplasmic extract (VH on human gamma 1 CH1, vector Em351)
B2: RhD292.109A02 (Fab, V domains shown)
VH: QVQLVETGGGVVQPGRSLRLSCAASGFTFSSYGMHWVRQAPGKGLEWVAVIWSDGSNKYYADSVKGRFTISRDNSRNTLYLQMNSLRAEDTAVFYCAREQGGYSSSWYRRYYYYYMDVWGQGTTVTVSS
VL: B1 VL with L4M, Y32W, K45N, S49F, S53T, R80P, Y83F, T94S, P95S, P96V
notes: as for B1
B3: RhD244.158B10 (Fab, V domains shown)
VH: QVQLVESGGGVVQPGRSLRLSCAASGFSFSSYGMHWVRQAPGKGLEWVAIIWYDGSNKLYADSVKGRFTISRDNSRNTLYLQMSSVRAEDTAVYYCARDSVRGVSRWGTQKYYAMDVWGQGTTVTVSS
VL: DIQMTQSPSSLSASVGDRVIITCRASQSVNRYLNWYQQKPGKAPKLLIYAASSLQGGVPSRFSGSGSGTDFTLTISSLQREDFATYYCQQSYRTRTFGQGTKVEIKR
notes: as for B1
B4: RhD206.160C06 (Fab, V domains shown)
VH: QVQLVESGGGVVQPGRSLRLSCAASGFTFSSYGMHWVRQAPGKGLEWVAIIWFDGSNKYYADSVKGRFTISRDNSKNTLYLQINSLRAEDTAVYYCAKEHGYYSSSWYRNYYYYAMDVWGQGTTVTVSS
VL: DIQMTQSPSSLSASVGDRVTITCRASQSIRRYLNWYQKKPGKAPKLLIYAASSLQSGVPSRFSGSGSGTDFTLTISSLQPEDFATYYCQQSYRTQGLTFGGGTKVEIKR
notes: as for B1
B5: RhD240.125A09 (Fab, V domains shown)
VH: QLQLQESGPGLVKPSGTLSLTCAVSGGSMRSSNWWTWVRQPPGKGLEWIGEIHHGGSTNYNPSLQSRVTISVDKSKNRFSLKLSSVTAADTAVYHCARGRSYYDSSGHSFRGLVPFDIWGQGTMVTVSS
VL: DIQMTQSPSTLSASVGDRVTITCRASQSISSWLAWYQQKPGKAPKLLVYKTSSLEGGVPSRFSGSGSGTEFSLTIFRLQSDDFATYYCQQYNSFPYTFGQGTKLEFTR
notes: as for B1
B6: RhD205.160B12 (Fab, V domains shown)
VH: EVQLVETGGGLVKPGGSLRLSCAASGFTFRSYSMNWVRQAPGKGLEWVSSIGSSSTYTYSADSVKGRFTISRDNAKNSLYLQMNSLRAEDTAVYYCARGEPLNYDYIWGGYRFTIHWGQGTLVTVSS
VL: DIQLTQSPSFLSASVGDRVTITCRASHGISSYLAWYQQKPGKAPNLLIFPASTLQSGVPSRFSGSGSGTEFTLTISSLRPEDFATYYCQQLNSYSRWAFGQGTKVEVKR
notes: as for B1
B7: RhD158.119B06 (Fab, V domains shown)
VH: EVQLVETGGGVVQPGRSLRLSCAASGFSFSNFGFHWIRQSPGKGLEWVAVIWYDGSNRFYADSVKGRFTISRDSSKNMLFLQMDSLRAEDTAVYYCAREISMKVVIRRHYVMDVWGHGTTVTVSS
VL: DIQMTQSPSPLSASVGDRVSITCRASRGISNSLAWYQQKPGKVPKLLIYAASTLQSGVPSRFSGGGSGTDFTLTISSLQPEDVATYYCHTYNSAPFAFGPGTKVDIKR
notes: as for B1
B8: RhD243.109A05 (Fab, V domains shown)
VH: QVQLVESGGGVVQPGRSLRLSCAASGFTFSTYGMHWVRQAPGKGLEWVAVIWYDGSQKYYVDSVKGRFTISRDNSKNTLYLQMNSLRAEDTAVYYCAREVAVRGVIRYYYGMDVWGQGTTVTVSS
VL: DIQLTQSPSSLAASVGDRVIITCRSGQGIRNYLNWYQQKPGKAPKLLIYAASFLQSGVPSRFSGSGSGTDFTLTISSLQPEDFATYNCQQSYSDPWTFGQGTKVEIKR
notes: as for B1
B9: RhD293.109A09 (Fab, V domains shown)
VH: B8 VH with Q1E, S30N, Q57N, V61A, G111A
VL: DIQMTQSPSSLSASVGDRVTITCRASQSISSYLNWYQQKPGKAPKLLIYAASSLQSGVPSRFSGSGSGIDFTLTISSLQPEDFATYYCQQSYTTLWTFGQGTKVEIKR
notes: as for B1
B10: RhD202.158E07 (Fab, V domains shown)
VH: QVQLVESGGGVVQPGRSLRLSCAASGFTFSSYGMHWVRQAPGKGLEWVAVIWFDGSNRYYGDSVKGRVTISRDNSKNTLYLRMNSLRAEDTAVYYCAREFYTRSGLWSQGYSYYMDVWGKGTTVTVSS
VL: EIVLTQSPGTLSLSPGERATLSCRASQSVSSSYLAWYQHKPGQAPRLLIYGSSNRATGIPDRFSGSGSGTDFTVTISRLEPEDFAVYYCQQYGTAPYTFGQGTKLEIKR
notes: as for B1
B11: RhD245.164E06 (Fab, V domains shown)
VH: EVQLVQSGGGVVQPGRSPRLSCAASGFTFSSYGMHWVRQAPGKGLEWVAFIWYDGSNKYYADSVKGRFTISRDNSKNTLYLQMNSLRAEDTAVYYCARDLRNHVFWSGYSTSFDYWGQGTLVTVSS
VL: DIQMTQSPSSLSASVGDGITITCRASQSVRSYLNWYQQKPGKAPELLIYAASRLQSGVPSRFSGSGSGTDFTLTISSLQPEDFATYYCQHSYSTPVTFGQGTKVEVKR
notes: as for B1
B12: RhD203.179F07 (Fab, V domains shown)
VH: EVQLVESGGGVVQPGRSLRLSCAASGFTFSNYGMHWVRQAPGKGLEWVAVIWYDGSNKYYADSVKGRFTISRDNSKNTLYLQMNSLRAEDTAVYYCAREMVSYSSSWYRRYYYYVMDVWGKGTTVTVSS
VL: QSALTQPASVSGSPGQSITISCTATSSDIGAYNYVSWYQHHPGKAPKVIITDVNKRPSGVPDRFSGSKSGNTASLTISGLQPEDEAEYSCCSYAGTYSYVFGTGTKVTVLS
notes: as for B1
B13: RhD246.179B10 (Fab, V domains shown)
VH: B12 VH with S7T, N31S, V115N
VL: LSSELTQDPAVSVTLGQTVRITCQGDSLRHSYASWYQQKPGQAPILVIYGKNIRPSGIPDRFSGSTSGNTASLTITGAQAEDGGDYYCNSRDTSTDHYVFGDGTRVTVVG
notes: as for B1
B14: RhD242.181A03 (Fab, V domains shown)
VH: B12 VH with Y32H, V101A
VL: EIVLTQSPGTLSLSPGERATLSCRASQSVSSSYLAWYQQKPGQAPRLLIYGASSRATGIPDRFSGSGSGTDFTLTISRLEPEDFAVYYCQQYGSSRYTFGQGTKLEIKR
notes: as for B1
B15: RhD208.179B11 (Fab, V domains shown)
VH: B12 VH with S30R, N31T, Y32S, G33A, V115N
VL: QAVVTQEPSLTVSPGGTVTLTCASSTGSVTSGYYPNWFQQKPGQAPRPLISGTSNKLSWTPARFSGSLLGGKAALTVSGVQPEDEAVYYCLLYYGVPQPVVFGGGTKLTVLG
notes: as for B1
B16: RhD204.128A03 (Fab, V domains shown)
VH: EVQLVESGGGVVQPGRSLRLSCAASGFSFSNYGMHWVRQAPGKGLEWVAVISYDGSEKYYADSVKGRFTISRDNSKKALYLQMNSLRAEDTAMYYCKNKVGATRRAVVAFDIWGQGTTVTVSS
VL: LSSELTQDPAVSVALGQTVRITCQGDSLRSYYANWYQQKPGQAPLSVIYGKNNRPSGIPDRFSGSNSGNTAFLTITGTQAEDEADYYCNSRDSSGNYRELFGGGTKLTVLG
notes: Tested as Fab in E. coli periplasmic extract (VH on human gamma 1 CH1, vector Em351); Lambda clone
B17: RhD241.119B05 (Fab, V domains shown)
VH: QVQLQESGPGLVKPSETLSLICTVSGGSISSNYWSWIRQPPGKGLEWIGYIYYSGNTNYNPSLKSRVTISLDTSKNQFSLKLRSVTAADTAVYYCAREWRQYGSGIRGSRYYYGMDVWGQGTLVTVSS
VL: EIVLTQSPVTLSLSPGERATLSCRASQSVSSGYLAWYQQKPGQAPRLLIYGTSIRATGIPDRFSGSGSGTDFTLTISRLEPEDFAVYYCQQYGSSPLYSFGQGTKVDIKR
notes: as for B1

Target: T1, Rhesus D antigen
Experiment: agglutination assay, Fab periplasmic extract on RhD(+)/RhD(-) RBC mix
Description: After each round of panning single colonies were picked for analysis of their binding properties to red blood cells in agglutination assays. Briefly, single colonies were inoculated into 2×YT/100 μg/mL carbenicillin/1% glucose and shaken overnight at 37° C. The next day, DeepWell plates were inoculated using 900 μl 2×YT/100 μg/mL carbenicillin/0.1% glucose and 10 μl overnight culture. The plates were shaken for two hours at 37° C., before Fab induction was performed with addition of 300 μl 2×YT/100 μg/mL carbenicillin/0.25 mM IPTG per well. The plate was shaken overnight at 30° C. The following day, the bacteria were pelleted by centrifugation (3200×g, 4° C., 10 minutes), and re-suspended in 100 μl of 0.8 M NaCl, 0.2×PBS, 8 mM EDTA, and incubated for 15 minutes on ice in order to perform a periplasmic extraction of the Fab fragments. The plate was transferred to −20° C. and finally the suspension was thawed and centrifugation was performed for 10 minutes at 4° C. and 3200×g. The periplasmic extract was used in ELISA assays for analysis of Fab content and in agglutination assays to evaluate the binding potential of the individual Fab fragments.
The agglutination assay was performed as follows: RhD(−) and RhD(+) RBC were mixed in a 1:1 ratio, and washed 3 times in PBS. After the final wash, the cell mix was re-suspended in 1% BSA in PBS at a density of 10% cells, 50 μl was added to each well of a 96-plate. Periplasmic extracts were added to the wells. As a positive control Rhesogamma P immunoglobulin (Aventis) was used according to the manufacturer's instructions. The plates were incubated for one hour at room temperature with gentle shaking. The cells were washed three times with PBS, before the secondary antibody was added (goat anti-human Fab/FITC conjugate, Sigma F5512) in a 1:100 dilution. The plates were left for agglutination for one hour at room temperature without shaking. Fab fragments positive in the agglutination assay was determined by visual inspection, and recorded by taking a picture. Quantization of the binding activity of the Fab fragments was performed by FACS analysis of the agglutination samples.

Binding result, binds:
B1
B2
B3
B4
B5
B6
B7
B8
B9
B10
B11
B12
B13
B14
B15
B16
B17
